Test results as given in PMC9735655, “Two Distinct Modes of DNA Binding by an MCM Helicase Enable DNA Translocation”.
Blank lines part the entries; values can stand above or below the molecule they belong to.

How the values were obtained:
[1] = molecular target: MCM protein of Saccharolobus solfataricus with the C-terminal helix-turn-helix domain removed and a modified linker between the N-terminal domain and the AAA+ ATPase domain (Saccharolobus solfataricus) (UniProt Q9UXG1); test: cryo-EM structure; SsoMCM at 1 mg/mL mixed 5:1 by volume with 1 mM oligonucleotide (T12, T16 or T20-CTATAG-T20), 5 mM ADP-BeF3, magnesium; plunge-frozen; two structural classes, also refined from merged particles
[2] = molecular target: T1, SsoMCM (C-terminal HTH removed, modified interdomain linker; pEE078.1) (Saccharolobus solfataricus, UniProt Q9UXG1 1-265+=GGSGGS+275-612, internal_change); test: cryo-EM; Mg2+, ADP-BeF3; class 1 (six subunits on DNA); Cryo-EM sample: protein 1 mg/mL mixed 5:1 (v/v) with 1 mM oligonucleotide, 5 mM fresh ADP-BeF3, magnesium present; buffer, salt, pH and temperature not stated in the material; settings: protein: recombinant, tags: His6-SUMO removed with Ulp1, chain copies: 6
T1 sequence: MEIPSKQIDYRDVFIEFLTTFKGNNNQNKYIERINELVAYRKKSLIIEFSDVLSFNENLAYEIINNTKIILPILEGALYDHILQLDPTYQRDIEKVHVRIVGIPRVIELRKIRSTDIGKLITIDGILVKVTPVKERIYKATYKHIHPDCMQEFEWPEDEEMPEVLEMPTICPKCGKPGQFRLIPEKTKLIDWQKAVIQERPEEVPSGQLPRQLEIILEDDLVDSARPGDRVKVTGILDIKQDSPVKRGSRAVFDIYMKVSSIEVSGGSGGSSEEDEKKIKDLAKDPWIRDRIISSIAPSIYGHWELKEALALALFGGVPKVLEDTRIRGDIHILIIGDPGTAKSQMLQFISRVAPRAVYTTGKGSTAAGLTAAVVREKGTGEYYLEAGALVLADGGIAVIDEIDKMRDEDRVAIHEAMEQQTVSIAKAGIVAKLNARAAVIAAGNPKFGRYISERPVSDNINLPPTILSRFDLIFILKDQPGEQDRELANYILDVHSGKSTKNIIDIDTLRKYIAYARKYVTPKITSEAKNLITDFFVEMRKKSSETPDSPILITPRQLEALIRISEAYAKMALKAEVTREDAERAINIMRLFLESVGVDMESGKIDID

[3] = molecular target: T1, SsoMCM (C-terminal HTH removed, …); test: cryo-EM; Mg2+, ADP-BeF3; class 1 (six subunits on DNA, 2.48 A); Cryo-EM sample: protein 1 mg/mL mixed 5:1 (v/v) with 1 mM oligonucleotide, 5 mM fresh ADP-BeF3, magnesium present; buffer, salt, pH and temperature not stated in the material; settings: protein: recombinant; tags: His6-SUMO removed with Ulp1; chain copies: 6; single strand

stoichiometry N [1]: 6
Molecule: MCM protein of Saccharolobus solfataricus with the C-terminal helix-turn-helix domain removed and a modified linker between the N-terminal domain and the AAA+ ATPase domain (from UniProt Q9UXG1 1-686) (enzyme)

Molecule: TTTTTTTTTTTT (ssDNA) [T12 (12-mer poly-dT)]
binding result ([2]; single strand): binds

Molecule: TTTTTTTTTTTTTTTTTTTTCTATAGTTTTTTTTTTTTTTTTTTTT (ssDNA) [T20-CTATAG-T20]
binding result ([2]; central 6-nt palindrome, potential X-shape with 20-mer poly-dT arms): binds

Molecule: TTTTTTTTTTTTTTTT (ssDNA) [T16 (16-mer poly-dT)]
binding result [3]: binds
